Data published in publication PMC5082641.

How the values were obtained:
[1] = biological target: SdyTag-EGFP (Streptococcus dysgalactiae); assay: kinetics of covalent ligation by SDS-PAGE and densitometry; equimolar Catcher and Tag-EGFP (10 uM for SpyTag-EGFP; 50 uM for SdyTag-EGFP by S3 and S4 Figs), 100 uM sodium phosphate buffer pH 7, 25°C; second order rate constants from Catcher depletion; triplicates
[2] = biological target: SpyTag-EGFP (Streptococcus pyogenes); assay: as above
[3] = biological target: SdyTag-EGFP (Streptococcus dysgalactiae); assay: covalent ligation read by SDS-PAGE and densitometry; 50 uM Catcher with 65 uM SdyTag-EGFP (1.3 equivalents), 100 uM sodium phosphate buffer pH 7, 25°C, 40 minutes; quenched with SDS-PAGE loading buffer and boiled; yield with respect to the limiting Catcher; triplicates
[4] = biological target: SpyTag-EGFP-SdyTag (Streptococcus pyogenes | Streptococcus dysgalactiae); assay: covalent ligation read by SDS-PAGE and densitometry; step-wise reaction of dual-Tag constructs with SpyCatcher, 5 and 30 minutes; at 5 minutes aliquots given additional SpyCatcher or SdyCatcher DANG short for a further 25 minutes

## SpyCatcher (domain or fragment)
[1]
  second order rate constant of covalent ligation: 1 M⁻¹ s⁻¹
[2]
  second order rate constant of covalent ligation: 322 M⁻¹ s⁻¹
[3]
  yield of ligated product after 40 minutes: 7%
[4]
  percent of products ligated twice: < 10%
